Substitutions are numbered along the chain they refer to. One block for each binder: values may come before it.
How the values were obtained:
HER2-ECD-His protein [1] = target: T1, HER2-ECD-His protein (human, UniProt P04626 23-652); assay: SPR (Biacore 3000), HER2-ECD-His amine-coupled to CM5, periplasmic extract as analyte
T1 construct: extracellular domain; not shown: His tag
Method: In order to select clones with improved Koff among the selected clones, the clones were analyzed via Biacore 3000 (GE Healthcare). The HER2-ECD-His protein was immobilized to a CM5 sensor chip via an amine coupling method using ECD/NHS. […] The Koff value for each antibody was analyzed via BIAevaluation software.

[2] = target: T2, HER2-ECD (ELISA antigen of Examples 13 and 14) (human, UniProt P04626 23-652); assay: ELISA, periplasmic extract on HER2-ECD
T2 construct: extracellular domain

HER2-ECD-His protein [3] = target: T1, HER2-ECD-His protein; assay: SPR, IgG captured by goat anti-human IgG on CM5, HER2-ECD-His analyte
Method: The goat anti-human IgG (Invitrogen, #H10500) at a concentration of 2000 RU was immobilized to a CM5 sensor chip via ECD/NHS method. Then, the antibodies were allowed to bind at a rate of 50 μL/min for 5 minutes, and allowed the buffer to flow thereonto for 5 minutes for stabilization purpose. […] After analyzing each of the concentrations, they were recycled using 10 mM Glycine (pH 1.5) and performed the subsequent assays. The affinities of the antibodies were analyzed via BIAevaluation software.

Degree of reduction (Fold) of koff against hz1E11 (HER2-ECD-His protein [1]): 7.4 fold
B1: M1-L-A1-3-1C3 (hz1E11-3), periplasmic extract (antibody, V domains shown)
VH: EVQLVESGGGLVQPGGSLRLSCAASGFTFSSYTMSWVRQAPGKGLEWVAYISNGGGSTYYPDTVKGRFTISRDNAKNSLYLQMNSLRAEDTAVYYCARHLGGTASFDYWGQGTLVTVSS
VL: DIQMTQSPSSLSASVGDRVTITCLASQTIGTWLAWYQQKPGKAPKLLIYVATSLADGVPSRFSGSGSGTDFTLTISSLQPEDFATYYCDQMYSTPWTFGQGTKVEIK
notes: Library clone expressed in bacteria with IPTG, tested as periplasmic extract; LCDR3 DQMYSTPWT

binding result [2]: binds
B2: hz1E11 CDR-L3 S93A (antibody, V domains shown)
VH: B1 VH
VL: B1 VL with D89Q, M91L, S93A
notes: Alanine scanning variant, expressed in bacteria, periplasmic extract

Kd (HER2-ECD-His protein [3]): 1.1 nM
fold decrease in Koff (kd) compared to hz1E11 (HER2-ECD-His protein [3]): 8.4 fold
fold improvement of affinity compared to hz1E11 (HER2-ECD-His protein [3]): 20 fold
koff (HER2-ECD-His protein [3]): 9.9e-05 s⁻¹
kon (HER2-ECD-His protein [3]): 86000 M⁻¹ s⁻¹
B3: hz1E11-154 (IgG) (antibody, V domains shown)
VH: B1 VH
VL: B1 VL with D89Q, M91T, Y92A, S93F, T94S
notes: heavy chain variable region the same as hz1E11

binding result [2]: binds
B4: hz1E11 CDR-L3 Q89A (antibody, V domains shown)
VH: B1 VH
VL: B1 VL with D89A, M91L
notes: as for B2

Degree of reduction (Fold) of koff against hz1E11 (HER2-ECD-His protein [1]): 5.8 fold
B5: M1-LH-A3-3-1A6 (antibody, name in Kabat numbering, V domains shown)
VH: B1 VH with H99N, L100Y
VL: B1 VL with D89Q, M91L, Y92V, S93R
notes: hz1E11 library clone, periplasmic extract

binding result [2]: binds
B6: hz1E11 CDR-L3 Y92A (antibody, V domains shown)
VH: B1 VH
VL: B1 VL with D89Q, M91L, Y92A
notes: as for B2

Degree of reduction (Fold) of koff against hz1E11 (HER2-ECD-His protein [1]): 9.7 fold
B7: M3-L-A1-3-1F11 (hz1E11-154), periplasmic extract (antibody, V domains shown)
VH: B1 VH
VL: B1 VL with D89Q, M91T, Y92A, S93F, T94S
notes: Library clone expressed in bacteria with IPTG, tested as periplasmic extract; LCDR3 QQTAFSPWT

binding result [2]: binds
B8: hz1E11 CDR-L3 Q90A (antibody, V domains shown)
VH: B1 VH
VL: B1 VL with D89Q, Q90A, M91L
notes: as for B2

binding result [2]: binds
B9: hz1E11 CDR-L3 T94A (antibody, V domains shown)
VH: B1 VH
VL: B1 VL with D89Q, M91L, T94A
notes: as for B2

Kd (HER2-ECD-His protein [3]): 1.5 nM
fold decrease in Koff (kd) compared to hz1E11 (HER2-ECD-His protein [3]): 8.4 fold
fold improvement of affinity compared to hz1E11 (HER2-ECD-His protein [3]): 15 fold
koff (HER2-ECD-His protein [3]): 9.9e-05 s⁻¹
kon (HER2-ECD-His protein [3]): 64000 M⁻¹ s⁻¹
B10: hz1E11-133 (IgG) (antibody, V domains shown)
VH: B1 VH
VL: B1 VL with D89Q, M91N, Y92A, S93Y, T94A
notes: as for B3

Degree of reduction (Fold) of koff against hz1E11 (HER2-ECD-His protein [1]): 30.4 fold
B11: M3-L-A1-3-1A12 (hz1E11-133), periplasmic extract (antibody, V domains shown)
VH: B1 VH
VL: B1 VL with D89Q, M91N, Y92A, S93Y, T94A
notes: Library clone expressed in bacteria with IPTG, tested as periplasmic extract; LCDR3 QQNAYAPWT

binding result [2]: binds
B12: hz1E11 CDR-L3 L91A (antibody, V domains shown)
VH: B1 VH
VL: B1 VL with D89Q, M91A
notes: as for B2

Degree of reduction (Fold) of koff against hz1E11 (HER2-ECD-His protein [1]): 4.4 fold
B13: M3-LH-A3-3-2F1 (antibody, V domains shown)
VH: B1 VH
VL: B1 VL with D89Q, M91N, Y92A, S93Y, T94N
notes: as for B5

binding result [2]: binds
B14: hz1E11 CDR-H3 S100aA (antibody, name in Kabat numbering, V domains shown)
VH: B1 VH with S105A
VL: B1 VL with D89Q, M91L
notes: as for B2

Degree of reduction (Fold) of koff against hz1E11 (HER2-ECD-His protein [1]): 0.7 fold
B15: M3-LH-A1-1-1H1 (antibody, name in Kabat numbering, V domains shown)
VH: B1 VH with H99N, L100Y
VL: B1 VL with D89Q, M91N, Y92F, S93I, T94A
notes: as for B5

Degree of reduction (Fold) of koff against hz1E11 (HER2-ECD-His protein [1]): 3.6 fold
B16: M3-LH-A3-3-2A5 (antibody, name in Kabat numbering, V domains shown)
VH: B1 VH with L100W
VL: B1 VL with D89Q, Y92F
notes: as for B5

Degree of reduction (Fold) of koff against hz1E11 (HER2-ECD-His protein [1]): 5.9 fold
B17: M3-L-A3-4-2E8 (antibody, V domains shown)
VH: B1 VH
VL: B1 VL with D89Q, M91I, Y92A, S93Y, T94V
notes: as for B5

Degree of reduction (Fold) of koff against hz1E11 (HER2-ECD-His protein [1]): 3.2 fold
B18: M3-LH-A1-2-2F4 (antibody, name in Kabat numbering, V domains shown)
VH: B1 VH with H99N
VL: B1 VL with D89Q, M91L, Y92V, S93R, T94I
notes: as for B5

Degree of reduction (Fold) of koff against hz1E11 (HER2-ECD-His protein [1]): 2 fold
B19: M3-L-A1-3-2C2 (antibody, V domains shown)
VH: B1 VH
VL: B1 VL with D89Q, M91L, Y92G, S93F, T94I
notes: as for B5

Kd (HER2-ECD-His protein [3]): 5.2 nM
koff (HER2-ECD-His protein [3]): 0.0002 s⁻¹
kon (HER2-ECD-His protein [3]): 38000 M⁻¹ s⁻¹
B20: hz1E11-3 (IgG) (antibody, V domains shown)
VH: B1 VH
VL: B1 VL
notes: as for B3

binding result [2]: binds
B21: hz1E11 CDR-H3 T99A (antibody, name in Kabat numbering, V domains shown)
VH: B1 VH with T103A
VL: B1 VL with D89Q, M91L
notes: as for B2

binding result [2]: binds
B22: hz1E11 CDR-H3 L96A (antibody, name in Kabat numbering, V domains shown)
VH: B1 VH with L100A
VL: B1 VL with D89Q, M91L
notes: as for B2

binding result [2]: binds
B23: hz1E11 CDR-H3 H95A (antibody, name in Kabat numbering, V domains shown)
VH: B1 VH with H99A
VL: B1 VL with D89Q, M91L
notes: as for B2
